From article PMC5101480 (Scientific Reports, 2016) come the findings set out here.

The chains are these.
B1: Rpn13 extreme C-terminal pentapeptide (DMSLD; residues 403-407) (peptide)
peptide: DMSLD
notes: also called DMSLD peptide; DMSLD pentapeptide; source: synthetic peptide, bought: Alta BioScience (Birmingham, UK)
B2: TPR domain of SGTA (small, glutamine-rich, tetratricopeptide repeat protein alpha), residues 84-211 (domain or fragment, human, UniProt O43765 84-211, looked up)
chain: SEEDSAEAERLKTEGNEQMKVENFEAAVHFYGKAIELNPANAVYFCNRAAAYSKLGNYAGAVQDCERAICIDPAYSKAYGRMGLALSSLNKHVEAVAYYKKALELDPDNETYKSNLKIAELKLREAPS
notes: human SGTA, central TPR domain, residues 84-211; 15N-labelled (M9 medium) where it was the observed species in NMR; unlabelled otherwise; not shown: thioredoxin A (TxA), N-terminal, cleaved; His6, N-terminal, cleaved

The target of data set [1] is SGTA-V5 (UniProt O43765).
The target in data set [2] is B2. The data set can be described thus: ITC; SGTA_TPR at 1 mM injected into Rpn13 or DMSLD peptide at 50 μM in the cell; 25 °C, 10 mM potassium phosphate pH 6.0, 100 mM NaCl, 250 μM TCEP; one site assumed (n = 1). The note with it: both partners purified. Background: Isothermal titration calorimetry measures the heat released or taken up as one component is titrated into another.

Data set [3] has as its target T1, spin labelled K398C Rpn13_(260-407) mutant (human, UniProt Q16186 260-407, K398C, paramagnetic MTSL or diamagnetic dMTSL label incorporated via the K398C cysteine).
T1 construct: The paramagnetic and the diamagnetic sample are written as one molecule: the PRE read-out is the ratio of the two; source: E. coli BL21(DE3) Rosetta, purified, then labelled with MTSL or dMTSL; not shown: thioredoxin A (TxA), N-terminal, cleaved; His6, N-terminal, cleaved
The data set can be described thus: NMR paramagnetic relaxation enhancement; 15N-labelled SGTA_TPR mixed with MTSL or dMTSL labelled K398C Rpn13_(260-407) at a 1:1.2 ratio, 200 μM; 10 mM potassium phosphate pH 6.0, 100 mM NaCl; 1H-15N HSQC. Particulars: both partners purified.

The target in data set [4] is T2, Rpn13 C-terminal domain, residues 260-407 (human, UniProt Q16186 260-407).
T2 construct: 15N-labelled where it was the observed species in NMR; unlabelled otherwise; not shown: thioredoxin A (TxA), N-terminal, cleaved; His6, N-terminal, cleaved
The data set can be described thus: ITC; SGTA_TPR at 1 mM injected into Rpn13 or DMSLD peptide at 50 μM in the cell; 25 °C, 10 mM potassium phosphate pH 6.0, 100 mM NaCl, 250 μM TCEP; one site assumed (n = 1). The note with it: both partners purified.

In data set [5] the target is B1. Described as above. Particulars: both partners purified.
For data set [6], the target named is T2, Rpn13 C-terminal domain, residues …. The data set can be described thus: NMR titration; 1H-15N HSQC chemical shift perturbation; unlabelled SGTA_TPR (wild type or K160E/R164E) titrated into 15N-labelled Rpn13_(260-407); 25 °C, 10 mM potassium phosphate pH 6.0, 100 mM NaCl, 250 μM TCEP. The note with it: both partners purified.
In data set [7] the target is T3, TPR domain of SGTA (SGTA_TPR) (Homo sapiens, UniProt O43765).
T3 construct: thioredoxin A (TxA) fusion (N, cleaved yes); hexahistidine tag (N, cleaved yes); made in house; host or cells: E. coli BL21(DE3) Rosetta
The data set can be described thus: Isothermal titration calorimetry (ITC), SGTA_TPR titrated into Rpn13 or DMSLD peptide. Type of data set: binding. The note with it: 20 injections of 2 μL of 1 mM SGTA_TPR into 50 μM Rpn13_260-402, pH 6.0, 25 °C. Here is the method:
ITC experiments were performed using an ITC-200 microcalorimeter from Microcal (GE Healthcare) at 25 °C following the standard protocol as reported previously. Proteins or peptide samples were prepared in 10 mM potassium phosphate pH 6.0, 100 mM NaCl, 250 μM TCEP. In each titration, either 40 injections of 1 μL or 20 injections of 2 μL of SGTA_TPR each, at a concentration of 1 mM, were added to a sample of Rpn13 or the Rpn13 derived DMSLD peptide at a concentration of 50 μM in the reaction cell. A nonlinear least-squares minimization algorithm was applied to integrated heat data obtained for the titrations, corrected for heats of dilution, in order to fit the experimentally obtained values to a theoretical titration curve. This was performed using the MicroCal-Origin 7.0 software package. ΔH (reaction enthalpy change in kcal/mol), Kb (equilibrium binding constant in per molar), and n (molar ratio between the proteins in the complex) were used as fitting parameters. The reaction entropy, ΔS, was calculated using the relationships ΔG = −RT lnKb (R = 8.314 J/(mol K), T 298 K) where ΔG = ΔH − TΔS. Dissociation constants (Kd) have been determined for each interaction. Binding was assumed to be at one site (n = 1), to determine the binding affinity (Kd) and thermodynamic parameters.

Data set [8] concerns the target T3, TPR domain of SGTA (SGTA_TPR). The data set can be described thus: Size exclusion chromatography (SEC) complex formation with SGTA_TPR. Type of data set: binding. The note with it: mixed in 1:1 molar ratio. How it is done:
In order to understand molecular details underlying the interaction between SGTA and Rpn13, solution NMR studies were carried out on excised domains of SGTA and Rpn13 guided by earlier mapping studies. Reciprocal chemical shift perturbation (CSP) experiments were performed by titrating unlabelled Rpn13 C-terminal domain (residues 260–407; hereafter described as Rpn13_260-407) into ^15N-labelled TPR domain of SGTA (residues 84–211; hereafter referred to as SGTA_TPR) and vice versa. Assignments of backbone amide resonances were obtained from the BMRB (accession numbers 5709 and 17286, for SGTA_TPR and Rpn13_260-407, respectively). The ^1H-^15N HSQC spectra of both SGTA_TPR and Rpn13_260-407 show binding in a fast exchange regimen (Figs 1A and 2A). […] Binding was further confirmed by size-exclusion chromatography (SEC) and isothermal titration calorimetry (ITC) (Fig. 1C,D). […]
SGTA_TPR and Rpn13 plasmids were transformed into E. coli BL21(DE3) Rosetta cells, with protein expression induced by adding 0.3–0.5 mM isopropyl-β-D-thiogalactopyranoside (IPTG) to bacterial cultures in LB media at OD600 ≈ 0.8, followed by overnight incubation at 18 °C. […] Proteins were concentrated using Vivaspin concentrators (Sartorius Stedin) and sample purity and homogeneity was assessed by SDS-PAGE, mass spectrometry and NMR. […]
For orientation: In gel filtration, larger molecules generally elute earlier.

Data set [9] has the same target. In words: Solution NMR CSP titration of unlabelled ligand into 15N-labelled SGTA_TPR. The data set is classed as binding. Particulars: unlabelled ligand into 15N-labelled SGTA_TPR; pH 6.0, 25 °C; Rpn13_260-407 up to 8 equivalents, Rpn13_260-402 up to 6-fold molar excess. Here is the method: In order to understand molecular details underlying the interaction between SGTA and Rpn13, solution NMR studies were carried out on excised domains of SGTA and Rpn13 guided by earlier mapping studies. Reciprocal chemical shift perturbation (CSP) experiments were performed by titrating unlabelled Rpn13 C-terminal domain (residues 260–407; hereafter described as Rpn13_260-407) into ^15N-labelled TPR domain of SGTA (residues 84–211; hereafter referred to as SGTA_TPR) and vice versa. Assignments of backbone amide resonances were obtained from the BMRB (accession numbers 5709 and 17286, for SGTA_TPR and Rpn13_260-407, respectively). The ^1H-^15N HSQC spectra of both SGTA_TPR and Rpn13_260-407 show binding in a fast exchange regimen (Figs 1A and 2A). […] Binding was further confirmed by size-exclusion chromatography (SEC) and isothermal titration calorimetry (ITC) (Fig. 1C,D). […] ITC experiments yield a dissociation constant of 16.1 ± 1.4 μM in keeping with the value obtained from NMR.
Protein samples at concentrations between 300 μM and 1 mM were prepared in 10% D2O (Sigma Aldrich), 10 mM potassium phosphate pH 6.0, 100 mM NaCl and 250 μM TCEP buffer (with 10 μM DSS for proton chemical shift referencing). All NMR experiments were acquired in 5 mm NMR tubes at 25 °C on 500 MHz and 700 MHz Bruker Avance spectrometers equipped with cryoprobes and operated by the TopSpin 3.1 software package. All NMR spectra were processed with TopSpin and analysed with CcpNMR Analysis[35]. Proteins used for NMR titrations were dialysed overnight against the same buffer (10 mM potassium phosphate pH 6.0, 100 mM NaCl and 250 μM TCEP) and mixed in different molar ratios, with the concentration of the labelled protein maintained constant. ^1H-^15N HSQC experiments were recorded for each titration point at 25 °C. Chemical shift perturbation (CSP) values were calculated for each amide signal using the following formula: […]
where Δδ1H and Δδ15N are the chemical shift differences for the same amide in its free and bound state (δfree−δbound) and for proton and nitrogen chemical shift values respectively. […]

Chain of SGTA-V5 (O43765 whole entry): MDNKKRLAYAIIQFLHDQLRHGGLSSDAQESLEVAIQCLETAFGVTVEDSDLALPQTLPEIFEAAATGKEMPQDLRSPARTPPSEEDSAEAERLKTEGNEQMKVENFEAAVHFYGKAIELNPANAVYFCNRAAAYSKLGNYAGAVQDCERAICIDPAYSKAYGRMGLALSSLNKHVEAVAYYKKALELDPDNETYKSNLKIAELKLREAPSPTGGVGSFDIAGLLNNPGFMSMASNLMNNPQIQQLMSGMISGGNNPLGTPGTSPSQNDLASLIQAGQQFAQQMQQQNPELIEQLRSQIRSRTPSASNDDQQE

“FLAG tagged mouse Rpn13 (150-402) (from UniProt Q9JKV1 150-402) (domain or fragment)” registered a fold increase of steady state OP91 level (quantitative western blot) in HeLa TRex Flp-In cells co-expressing SGTA-V5 and Rpn13 (150-402), against the Rpn13 (150-407) control in [1] of 3 fold.

For B1, the Kd – broadly, the concentration at which binding is half-saturated – in data set [2] amounted to 71.9 ± 13.3 µM.

On to B2, for which the binding result in data set [3] is listed as “binds”. The dissociation constant Kd amounted to 16.1 ± 1.4 µM in data set [4] and 3.27 ± 0.87 µM in [6]. Besides, the dH in [4] was -14.1 ± 0.335 kJ/mol; in data set [5] it was -20.8 ± 1.72 kJ/mol.

B3: Rpn13_260-402: Rpn13 construct devoid of the C-terminal pentapeptide (residues 260–402) (protein)
chain: QPIQLSDLQSILATMNVPAGPAGGQQVDLASVLTPEIMAPILANADVQERLLPYLPSGESLPQTADEIQNTLTSPQFQQALGMFSAALASGQLGPLMCQFGLPAEAVEAANKGDVEAFAKAMQNNAKPEQKEGDTKDKKDEEE
modifications: left off: thioredoxin A (TxA), N-terminal, cleaved | His6, N-terminal, cleaved
Regarding B3, the “ITC binding, result in words” value was “abrogation of binding with SGTA_TPR” in data set [7] and “does not interact” in [7] (listed as Rpn13260-402). The “SEC complex formation with SGTA_TPR” value in [8] is recorded as “no evidence of an interaction”. The “CSP of SGTA_TPR backbone amide signals, result in words” value in data set [9] is reported as “no perturbation of SGTA_TPR backbone amide signals”.
